Among the data in article PMC13423832 are response values, retold here.

This test concerns the target COX4I1. As to the kind of experiment: AP-MS (FLAG affinity purification, protein intensity). Conditions: HEK293T transiently overexpressing FLAG-tagged COX5A; n = 3 biological replicates, mean ± SD; parent: est. 1.1e10; read off a plot.
With “COX5A-FLAG, wild type (from UniProt P20674) D81W”, the response was 2.5e+10 intensity.

Consider “COX5A-FLAG, wild type (from UniProt P20674) T79G”, for which the response came to 6e+09 intensity.

With “COX5A-FLAG, wild type (from UniProt P20674) Y80W”, the response is 5e+09 intensity.
